Literature values as cited in patent US20110294730A1, “METHOD OF TREATING GLAUCOMA AND INTRAOCULAR HYPERTENSION” (priority 2010, published 2011).

System: trabecular meshwork

B1: IL-Ia: exogenous growth factor (protein, UniProt P01583 113-271, looked up)
Interleukin-1 alpha: SAPFSFLSNVKYNFMRIIKYEFILNDALNQSIIRANDQYLTAAALHNLDEAVKFDMGAYKSSKDDAKITVILRISKTQLYVTAQDEDQPVLLKEMPEIPKTITGSETNLLFFWETHGTKNYFTSVAHPNLFIATKQDYWVCLAGGPPSITDFQILENQA
  extracellular acidification: significantly stimulated
